Experimental data published in publication PMC4189953.

Key:
[1] = biological target: CFP-tagged ICln (C-ICln) (human) (UniProt P54105); assay: FRET or BRET; acceptor photobleaching FRET (FRETeff), living HEK cells, 37°C, after 10 min exposure to the hypotonic extracellular solution; CFP donor, YFP acceptor
[2] = biological target: CFP-tagged ICln (C-ICln) (human) (UniProt P54105); assay: FRET or BRET; acceptor photobleaching FRET (FRETeff), living HEK cells 24 h after transfection, 37°C, slightly hypertonic extracellular solution (317 mOsm, pH 7.4); CFP donor, YFP acceptor; whole cell bleached

UniProt P54105, sequence (P54105 whole entry): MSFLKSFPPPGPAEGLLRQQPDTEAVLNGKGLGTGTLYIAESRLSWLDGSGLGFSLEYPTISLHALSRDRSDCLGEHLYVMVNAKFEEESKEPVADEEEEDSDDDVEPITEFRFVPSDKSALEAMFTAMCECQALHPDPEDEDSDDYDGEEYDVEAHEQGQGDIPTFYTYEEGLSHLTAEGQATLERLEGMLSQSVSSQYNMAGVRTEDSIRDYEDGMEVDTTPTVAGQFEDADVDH

YFP-tagged 4.1R^80 (Y-4.1R^80) (natural protein)
FRETeff [1]: 15.1
FRETeff [2]: 11.6
